Laboratory results from patent publication US20090060908A1 (Bristol-Myers Squibb, published 2009).

Tests used:
[1] = biological target: T1, prostate specific membrane antigen (PSMA) on LNCaP cells (human, UniProt Q04609 1-750); test: cell-based or functional assay
[2] = biological target: T1, prostate specific membrane antigen …; test: cell-based or functional assay; remark: listed apart in the source

T1 sequence (Q04609 whole entry): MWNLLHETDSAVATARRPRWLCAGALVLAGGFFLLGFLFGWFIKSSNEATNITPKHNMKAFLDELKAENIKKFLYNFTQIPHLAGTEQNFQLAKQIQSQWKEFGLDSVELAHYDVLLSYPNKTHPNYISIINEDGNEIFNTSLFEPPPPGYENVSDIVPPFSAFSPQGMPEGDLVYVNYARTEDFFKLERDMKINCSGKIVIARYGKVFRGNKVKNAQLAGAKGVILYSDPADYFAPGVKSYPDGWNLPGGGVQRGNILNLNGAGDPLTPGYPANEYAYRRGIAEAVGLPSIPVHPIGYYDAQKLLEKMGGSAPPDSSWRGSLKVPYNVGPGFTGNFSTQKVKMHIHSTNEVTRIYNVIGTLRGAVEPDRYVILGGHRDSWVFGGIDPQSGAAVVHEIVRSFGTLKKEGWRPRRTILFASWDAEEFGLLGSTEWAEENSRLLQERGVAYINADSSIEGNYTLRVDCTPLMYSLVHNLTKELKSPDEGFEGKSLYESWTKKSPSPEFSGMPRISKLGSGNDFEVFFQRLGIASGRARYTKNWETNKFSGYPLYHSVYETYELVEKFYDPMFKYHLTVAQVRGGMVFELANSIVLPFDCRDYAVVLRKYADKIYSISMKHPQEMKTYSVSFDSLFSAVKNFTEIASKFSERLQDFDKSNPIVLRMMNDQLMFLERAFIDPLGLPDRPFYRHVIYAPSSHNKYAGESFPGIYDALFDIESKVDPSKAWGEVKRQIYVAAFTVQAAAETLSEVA

B1: anti-PSMA human monoclonal antibody 7F12 expressed in eggs of chimeric chickens (lacks fucose residues) (antibody, IgG1, V domains shown)
VH: AVQLVQSGAEVKKPGESLKISCKGSGYSFTSFWIGWARQMPGKGLEWMGIIYPGDSDTRYSPSFQGQVTISADKSISTAYLQWSSLKASDTAMYYCATANSSFWNFDLWGRGTLVTVSS
VL: EIVLTQSPATLSLSPGERATLSCRASQSVSSYLAWYQQKPGQAPRLLIYDASNRATGIPARFSGSGSGTDFTLTISSLEPEDFAVYYCQQRSNWLMYTFGQGTKLEIK
modifications: N-linked Fc glycans without fucosyl residues (high-mannose, complex and hybrid type)
ADCC % lysis at 1 µg/ml antibody, no anti-CD16 antibody [1]: ~38%
ADCC EC50, 51Cr release, LNCaP-C42b targets, IL-2 stimulated effector cells [1]: 0.018 µg/mL
ADCC EC50 fold difference against CHO-expressed 7F12 [1]: ~6 fold lower
EC50 for antibody internalization (Hum-Zap saporin conjugate, LNCaP cell viability) [1]: 0.49 nM

B2: anti-PSMA fully human monoclonal antibody 2A10 expressed in CHO DG44 cells (fucosylated) (antibody, V domains shown)
VH: EVQLVQSGAEVKKPGESLKISCKGSGYSFTSNWIGWVRQMPGKGLEWMGIIYPGDSDTRYSPSFQGQVTISADKSISTAYLQWSSLKASDTAMYYCARQTGFLWSSDLWGRGTLVTVSS
VL: AIQLTQSPSSLSASVGDRVTITCRASQDISSALAWYQQKPGKAPKLLIYDASSLESGVPSRFSGYGSGTDFTLTINSLQPEDFATYYCQQFNSYPLTFGGGTKVEIK
modifications: N-linked glycans containing fucose
ADCC % lysis at 1 µg/ml antibody, no anti-CD16 antibody [1]: ~12%
ADCC EC50 (µg/ml) Fucosylated, Expt. #1 (IL-2 stimulated effector cells, LNCaP-C42b targets) [2]: 0.08 µg/mL
ADCC EC50 (µg/ml) Fucosylated, Expt. #2 (IL-2 stimulated effector cells, LNCaP-C42b targets) [2]: 0.026 µg/mL
ADCC EC50 (µg/ml) Fucosylated, Expt. #3 (fresh human peripheral blood effector cells, LNCaP-C42b targets) [2]: 0.036 µg/mL

B3: anti-PSMA fully human monoclonal antibody 2A10 expressed in FUT8-/- Ms704 cells (defucosylated) (antibody, IgG1, V domains shown)
VH: B2 VH
VL: B2 VL
modifications: N-linked glycans without fucose residues
ADCC % lysis at 1 µg/ml antibody, no anti-CD16 antibody [1]: ~37%
ADCC EC50 (µg/ml) Defucosylated, Expt. #1 (IL-2 stimulated effector cells, LNCaP-C42b targets) [2]: 0.007 µg/mL
ADCC EC50 (µg/ml) Defucosylated, Expt. #2 (IL-2 stimulated effector cells, LNCaP-C42b targets) [2]: 0.009 µg/mL
ADCC EC50 (µg/ml) Defucosylated, Expt. #3 (fresh human peripheral blood effector cells, LNCaP-C42b targets) [2]: 0.002 µg/mL
ADCC EC50 Ratio (fucosylated to defucosylated 2A10), Expt. #1 [2]: 11.4 ratio
ADCC EC50 Ratio (fucosylated to defucosylated 2A10), Expt. #2 [2]: 2.9 ratio
ADCC EC50 Ratio (fucosylated to defucosylated 2A10), Expt. #3 [2]: 18 ratio

B4: anti-PSMA human monoclonal antibody 7F12 expressed in CHO cells (fucosylated) (antibody, human IgG1, V domains shown)
VH: B1 VH
VL: B1 VL
modifications: N-linked Fc glycans containing fucosyl residues
ADCC % lysis at 1 µg/ml antibody, no anti-CD16 antibody [1]: ~15%
ADCC EC50, 51Cr release, LNCaP-C42b targets, IL-2 stimulated effector cells [1]: 0.11 µg/mL
EC50 for antibody internalization (Hum-Zap saporin conjugate, LNCaP cell viability) [1]: 0.49 nM
